{
  "source": "paper PMC4867596",
  "molecules": {"B1": {"name": "endogenous Pex19 (natural protein)", "chain": "MAAAEEGCSVGAEADRELEELLESALDDFDKAKPSPAPPSTTTAPDASGPQKRSPGDTAKDALFASQEKFFQELFDSELASQATAEFEKAMKELAEEEPHLVEQFQKLSEAAGRVGSDMTSQQEFTSCLKETLSGLAKNATDLQNSSMSEEELTKAMEGLGMDEGDGEGNILPIMQSIMQNLLSKDVLYPSLKEITEKYPEWLQSHRESLPPEQFEKYQEQHSVMCKICEQFEAETPTDSETTQKARFEMVLDLMQQLQDLGHPPKELAGEMPPGLNFDLDALNLSGPPGASGEQCLIM"}},
  "key": {"[1]": {"biological_target": "peroxisomal MAVS of Mefs MAVS-Pex cells (UniProt Q7Z434)", "sequence (Q7Z434 whole entry)": "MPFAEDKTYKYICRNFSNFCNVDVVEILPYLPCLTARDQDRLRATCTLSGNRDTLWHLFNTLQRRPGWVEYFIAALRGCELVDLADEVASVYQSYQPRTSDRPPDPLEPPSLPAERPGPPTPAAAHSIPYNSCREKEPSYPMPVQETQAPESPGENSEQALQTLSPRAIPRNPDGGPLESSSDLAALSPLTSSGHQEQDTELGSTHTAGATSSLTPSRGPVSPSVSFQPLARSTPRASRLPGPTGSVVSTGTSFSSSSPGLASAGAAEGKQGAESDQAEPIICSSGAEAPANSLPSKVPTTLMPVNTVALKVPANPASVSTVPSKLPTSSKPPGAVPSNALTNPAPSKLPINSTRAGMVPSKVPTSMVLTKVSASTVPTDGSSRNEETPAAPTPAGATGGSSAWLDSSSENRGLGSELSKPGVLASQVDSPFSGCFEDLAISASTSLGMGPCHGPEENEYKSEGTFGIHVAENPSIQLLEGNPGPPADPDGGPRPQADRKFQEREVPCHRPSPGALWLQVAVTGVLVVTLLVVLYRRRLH", "experiment": "co-IP; Mefs MAVS-Pex cells transfected with vMIA-myc or myc-Miro1 for 24 h; precipitated with an antibody against MAVS and Dynabeads Protein G; blot for MAVS and myc; controls: non-transfected cells, Mefs MAVS-KO cells with vMIA-myc"}, "Pex19-YFP [2]": {"biological_target": "Pex19-YFP (UniProt P40855)", "experiment": "co-IP; HepG2 cells co-transfected with Pex19-YFP and vMIA-myc for 24 h; Pex19-YFP precipitated with GFP-Trap_M beads, 2 h at 4 °C; lysis in 10 mM Tris-HCl pH 7.5, 150 mM NaCl, 0.5 mM EDTA, 0.5% NP-40; blot for myc, Pex19 and GFP; control: cells with GFP and vMIA-myc"}, "Pex19-YFP [3]": {"biological_target": "Pex19-YFP (UniProt P40855)", "experiment": "co-IP; HFF cells transfected with vMIA-myc and Pex19-YFP for 24 h; precipitated with GFP antibody overnight at 4 °C and Dynabeads Protein G; blot for myc and GFP; control: cells with vMIA-myc alone"}, "[4]": {"biological_target": "vMIA-myc (HCMV mitochondria-localized inhibitor of apoptosis, myc-tagged) (human cytomegalovirus)", "sequence (P16778 23-487)": "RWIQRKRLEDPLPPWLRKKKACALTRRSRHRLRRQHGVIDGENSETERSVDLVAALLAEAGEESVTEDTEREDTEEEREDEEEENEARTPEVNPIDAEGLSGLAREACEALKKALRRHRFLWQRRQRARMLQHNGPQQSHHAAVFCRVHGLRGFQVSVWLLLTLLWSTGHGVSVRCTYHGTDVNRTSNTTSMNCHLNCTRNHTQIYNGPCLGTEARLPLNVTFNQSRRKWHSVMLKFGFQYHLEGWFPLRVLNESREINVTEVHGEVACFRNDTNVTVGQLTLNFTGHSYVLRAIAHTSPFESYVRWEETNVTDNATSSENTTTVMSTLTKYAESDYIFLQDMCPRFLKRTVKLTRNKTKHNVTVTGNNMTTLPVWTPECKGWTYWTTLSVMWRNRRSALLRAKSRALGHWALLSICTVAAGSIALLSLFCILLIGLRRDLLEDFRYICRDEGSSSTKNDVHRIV", "experiment": "co-IP; HFF cells transfected with vMIA-myc for 24 h; precipitated with myc antibody (2 h, 4 °C) and Protein G magnetic beads; blot for myc and endogenous Pex19; control: non-transfected cells"}},
  "data": [
    {"molecule": "vMIA-myc (HCMV mitochondria-localized inhibitor of apoptosis, myc-tagged) (natural protein)", "values": [
      {"measurement": "fold increase of the IP band over the control", "setting": "[1]", "value": 18, "unit": "fold"},
      {"measurement": "fold increase of the IP band over the control", "setting": "Pex19-YFP [2]", "value": 7, "unit": "fold"},
      {"measurement": "fold increase of the IP band over the control", "setting": "Pex19-YFP [3]", "value": 5, "unit": "fold"}
    ]},
    {"molecule": "B1", "values": [
      {"measurement": "fold increase of the IP band over the control", "setting": "[4]", "value": 3, "unit": "fold"}
    ]}
  ]
}
